For assay [1], the target named is T1, human FcRn (Biorbyt, cat. no. orb84388) (human, UniProt P55899 24-297; P61769 21-119, limits assumed).
T1 construct: Bought protein; Biotinylated in AlphaLISA and ELISA; also called biotinylated human FcRn
Kind of assay: ELISA titration of biotinylated human FcRn, pH 7.4. As for the experimental part:
(§1) ELISA KD analysis of FcRn binding Z variants: A selection of FcRn binders was subjected to an analysis of the response against a dilution series of biotinylated human FcRn using ELISA at both pH 6.0 and pH 7.4 as described above. […] As a background control, all Z variants were also assayed with no target protein added. […] Data were analyzed using GraphPad Prism 5 and non-linear regression and KD values (the half maximal effective concentration) were calculated.
(§2) Periplasm samples were incubated with a serial dilution of biotinylated human FcRn.

In assay [2] the target is T1, human FcRn (Biorbyt, cat. no. orb84388). Kind of assay: ELISA titration of biotinylated human FcRn, pH 6.0. The method, then: as §1, §2
In general terms: In an ELISA, binding on a coated surface is turned into a signal by an enzyme label.

As a reminder, the Kd is the free concentration of one partner at which half of the binding sites on the other are occupied at equilibrium, for simple one-to-one binding. Low values mean tighter binding, high ones weaker binding.

T1 sequence (P55899 24-297 limits assumed, chain 1 of 2): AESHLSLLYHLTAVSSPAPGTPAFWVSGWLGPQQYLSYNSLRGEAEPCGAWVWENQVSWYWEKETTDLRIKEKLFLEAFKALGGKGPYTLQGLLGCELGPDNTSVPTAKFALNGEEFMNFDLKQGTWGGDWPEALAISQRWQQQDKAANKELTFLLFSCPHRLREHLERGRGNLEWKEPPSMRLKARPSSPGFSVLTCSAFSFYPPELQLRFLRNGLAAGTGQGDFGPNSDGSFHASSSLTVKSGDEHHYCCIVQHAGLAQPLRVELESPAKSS
T1 sequence (P61769 21-119 limits assumed, chain 2 of 2): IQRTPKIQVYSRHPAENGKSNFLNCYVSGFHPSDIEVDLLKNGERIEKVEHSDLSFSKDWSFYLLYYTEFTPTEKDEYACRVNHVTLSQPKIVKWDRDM

B1: Z13586-ABD fusion (designed binder)
chain: AQHDEALEVDAKYAKELKDAGHEIRWLPNLTFDQRVAFIHKLRDDPSQSSELLSEAKKLNDSQAPKVDYVLAEAKVLANRELDKYGVSDYYKNLINNAKTVEGVKALIDEILAALPYVPG
notes: domain: GA3; periplasmic Z-ABD fusion
For the molecule B1, the Kd came out at 2.3 nM in assay [1] and 1.2 nM in assay [2].

B2: Z13783-ABD fusion (designed binder)
chain: AQHDEALEVDAKYAKEIEQAGHEIRWLPNLTFDQRVAFIHKLRDDPSQSSELLSEAKKLNDSQAPKVDYVLAEAKVLANRELDKYGVSDYYKNLINNAKTVEGVKALIDEILAALPYVPG
notes: as for B1
As to B2, the dissociation constant (Kd) in assay [1] turned out to be 2.2 nM; in assay [2], 1.4 nM.

For the origin of these results see US20160031967A1 (Affibody, published 2016).
